Measured values: paper PMC10465357

These substances were tested against 14-3-3 proteins (assay: Western blot of purified virions, quantified). Details: read off a plot.

Row | Substance | ratio to parent
1 | UL32 (also known as pp150) 3/4mut | 0.06
2 | UL32 (also known as pp150) 3mut | 0.48
3 | UL32 (also known as pp150) 4/5mut | 0.02
